By IC50 is commonly meant the midpoint of a concentration-inhibition curve.

Numbered stars: 1 amine (or outer) side, 2 acyl side, 3 side chain; on linkers, the order of the positions; unused ones are H or OH. Bridge positions count the residues as written; N and C are the ends. Side chains are listed from the residue outwards. Ends that are not written are not given here. * marks the point of attachment. C20 diacid = O=C(O)CCCCCCCCCCCCCCCCCCC(=O)*; γGlu = O=C(O)[C@H](CCC(=O)[*:2])N[*:1]

In experiment [1] the target is T1, rat amylin receptor (rat calcitonin receptor + rat RAMP 3) (rat, UniProt P32214 25-516; Q9JJ73 23-147).
T1 construct: whole, on cells; also called rAmylin-R; rat amylin 3(a) receptor
T1 sequence (looked up) 1: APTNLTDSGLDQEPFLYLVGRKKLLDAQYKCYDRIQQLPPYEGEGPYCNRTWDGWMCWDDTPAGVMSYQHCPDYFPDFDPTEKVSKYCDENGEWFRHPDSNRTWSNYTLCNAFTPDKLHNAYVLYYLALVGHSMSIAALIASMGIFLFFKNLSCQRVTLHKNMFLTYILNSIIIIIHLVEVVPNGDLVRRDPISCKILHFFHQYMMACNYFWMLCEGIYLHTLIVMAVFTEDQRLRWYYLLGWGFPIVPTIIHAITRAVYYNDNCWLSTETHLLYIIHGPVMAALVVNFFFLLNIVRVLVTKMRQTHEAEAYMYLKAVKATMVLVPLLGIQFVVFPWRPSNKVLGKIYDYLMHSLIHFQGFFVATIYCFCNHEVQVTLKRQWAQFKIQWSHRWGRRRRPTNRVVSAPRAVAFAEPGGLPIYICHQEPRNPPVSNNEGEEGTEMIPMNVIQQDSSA
T1 sequence (looked up) 2: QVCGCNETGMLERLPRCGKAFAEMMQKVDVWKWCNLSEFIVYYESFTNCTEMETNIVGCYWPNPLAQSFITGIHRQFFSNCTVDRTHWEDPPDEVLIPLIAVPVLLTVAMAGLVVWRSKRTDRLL
In words: SPA competition with 125I-rat amylin, membranes of BHK cells with rat calcitonin receptor + rat RAMP3 (Assay VI).

The target of experiment [2] is T2, rat calcitonin receptor (rat, UniProt P32214 25-516).
T2 construct: whole, on cells; also called rCTR; rat calcitonin (a) receptor
T2 sequence (looked up): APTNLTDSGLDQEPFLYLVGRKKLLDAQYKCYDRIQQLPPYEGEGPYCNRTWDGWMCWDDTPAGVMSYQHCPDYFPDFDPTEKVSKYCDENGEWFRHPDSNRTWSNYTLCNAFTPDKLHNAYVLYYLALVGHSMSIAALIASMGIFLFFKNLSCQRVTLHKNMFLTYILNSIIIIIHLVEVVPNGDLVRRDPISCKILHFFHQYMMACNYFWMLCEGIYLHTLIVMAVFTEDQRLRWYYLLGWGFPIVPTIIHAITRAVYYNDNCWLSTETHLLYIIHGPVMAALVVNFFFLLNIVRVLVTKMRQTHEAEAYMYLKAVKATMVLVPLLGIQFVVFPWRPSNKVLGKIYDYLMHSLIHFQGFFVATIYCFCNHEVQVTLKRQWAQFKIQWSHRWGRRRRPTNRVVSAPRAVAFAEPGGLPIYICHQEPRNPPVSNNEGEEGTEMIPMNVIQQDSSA
The experiment can be described thus: ratio of binding IC50s: rat calcitonin receptor over rat amylin receptor (reference).

The target of experiment [3] is T2, rat calcitonin receptor. The experiment can be described thus: SPA competition with 125I-calcitonin, membranes of BHK cells with rat calcitonin receptor (Assay VIII).
Experiment [4] has as its target T3, human calcitonin receptor (human, UniProt P30988 25-474).
T3 construct: whole, on cells; also called hCTR; hCT
T3 sequence (looked up): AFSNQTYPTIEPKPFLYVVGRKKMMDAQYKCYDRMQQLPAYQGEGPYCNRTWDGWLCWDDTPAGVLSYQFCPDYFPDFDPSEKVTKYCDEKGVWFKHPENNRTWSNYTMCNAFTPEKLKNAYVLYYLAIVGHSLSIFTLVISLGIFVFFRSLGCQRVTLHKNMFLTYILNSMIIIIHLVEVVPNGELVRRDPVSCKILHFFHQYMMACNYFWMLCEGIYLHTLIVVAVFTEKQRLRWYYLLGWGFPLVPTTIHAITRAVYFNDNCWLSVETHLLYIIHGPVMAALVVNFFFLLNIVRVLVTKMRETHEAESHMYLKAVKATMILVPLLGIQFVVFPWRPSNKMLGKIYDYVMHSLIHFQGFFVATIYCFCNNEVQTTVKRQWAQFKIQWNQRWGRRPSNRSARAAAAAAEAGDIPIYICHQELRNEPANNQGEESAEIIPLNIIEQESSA
The experiment can be described thus: ratio of binding IC50s: human calcitonin receptor over human amylin receptor (reference). Put shortly: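 IC₅₀ values were derived by one-site competition analysis of SPA counts. Cell membranes (35 ng/μL) with SPA beads were incubated with test compounds for 120 min at 25° C in Hepes buffer, pH 7.4, containing CaCl2, MgCl₂, OA and Tween20.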

B1: N^ε1-[(4S)-4-carboxy-4-(19-carboxynonadecanoylamino)butanoyl]-[His14,Arg17,Pro21,Pro27,Pro31]-h-amylin (peptide)
peptide: K([γGlu-C20 diacid])CNTATCATQRLAHFLRHSSPNFGAIPSSTPVGSNTY-NH2
modifications: disulfide 2-7; N-terminus assumed
SMILES: CC[C@H](C)[C@H](NC(=O)[C@H](C)NC(=O)CNC(=O)[C@H](Cc1ccccc1)NC(=O)[C@H](CC(N)=O)NC(=O)[C@@H]1CCCN1C(=O)[C@H](CO)NC(=O)[C@H](CO)NC(=O)[C@H](Cc1c[nH]cn1)NC(=O)[C@H](CCCNC(=N)N)NC(=O)[C@H](CC(C)C)NC(=O)[C@H](Cc1ccccc1)NC(=O)[C@H](Cc1c[nH]cn1)NC(=O)[C@H](C)NC(=O)[C@H](CC(C)C)NC(=O)[C@H](CCCNC(=N)N)NC(=O)[C@H](CCC(N)=O)NC(=O)[C@@H](NC(=O)[C@H](C)NC(=O)[C@@H]1CSSC[C@H](NC(=O)[C@@H](N)CCCCNC(=O)CC[C@H](NC(=O)CCCCCCCCCCCCCCCCCCC(=O)O)C(=O)O)C(=O)N[C@@H](CC(N)=O)C(=O)N[C@@H]([C@@H](C)O)C(=O)N[C@@H](C)C(=O)N[C@@H]([C@@H](C)O)C(=O)N1)[C@@H](C)O)C(=O)N1CCC[C@H]1C(=O)N[C@@H](CO)C(=O)N[C@@H](CO)C(=O)N[C@H](C(=O)N1CCC[C@H]1C(=O)N[C@H](C(=O)NCC(=O)N[C@@H](CO)C(=O)N[C@@H](CC(N)=O)C(=O)N[C@H](C(=O)N[C@@H](Cc1ccc(O)cc1)C(N)=O)[C@@H](C)O)C(C)C)[C@@H](C)O
notes: synthetic analogue of human amylin; also called compound 62
On to B1, for which the results for the IC50 (in experiment [1]; with rat calcitonin receptor [3]) were 0.42 nM and 18 nM, respectively. Besides, in the experiment with rat calcitonin receptor [2], the “Ratio rCT/rAmylin binding” value is 42.8. Also, the “Ratio hCT/hAmylin binding” value in experiment [4] came to 63.

B2: N^ε1-[(4S)-4-carboxy-4-(19-carboxynonadecanoylamino)butanoyl]-[His14,Arg17,Pro21,Pro27,Pro34]-h-amylin (peptide)
peptide: K([γGlu-C20 diacid])CNTATCATQRLAHFLRHSSPNFGAIPSSTNVGPNTY-NH2
modifications: disulfide 2-7; N-terminus assumed
SMILES: CC[C@H](C)[C@H](NC(=O)[C@H](C)NC(=O)CNC(=O)[C@H](Cc1ccccc1)NC(=O)[C@H](CC(N)=O)NC(=O)[C@@H]1CCCN1C(=O)[C@H](CO)NC(=O)[C@H](CO)NC(=O)[C@H](Cc1c[nH]cn1)NC(=O)[C@H](CCCNC(=N)N)NC(=O)[C@H](CC(C)C)NC(=O)[C@H](Cc1ccccc1)NC(=O)[C@H](Cc1c[nH]cn1)NC(=O)[C@H](C)NC(=O)[C@H](CC(C)C)NC(=O)[C@H](CCCNC(=N)N)NC(=O)[C@H](CCC(N)=O)NC(=O)[C@@H](NC(=O)[C@H](C)NC(=O)[C@@H]1CSSC[C@H](NC(=O)[C@@H](N)CCCCNC(=O)CC[C@H](NC(=O)CCCCCCCCCCCCCCCCCCC(=O)O)C(=O)O)C(=O)N[C@@H](CC(N)=O)C(=O)N[C@@H]([C@@H](C)O)C(=O)N[C@@H](C)C(=O)N[C@@H]([C@@H](C)O)C(=O)N1)[C@@H](C)O)C(=O)N1CCC[C@H]1C(=O)N[C@@H](CO)C(=O)N[C@@H](CO)C(=O)N[C@H](C(=O)N[C@@H](CC(N)=O)C(=O)N[C@H](C(=O)NCC(=O)N1CCC[C@H]1C(=O)N[C@@H](CC(N)=O)C(=O)N[C@H](C(=O)N[C@@H](Cc1ccc(O)cc1)C(N)=O)[C@@H](C)O)C(C)C)[C@@H](C)O
notes: synthetic analogue of human amylin; also called compound 67
For the molecule B2, the IC50 in experiment [1] was 0.172 nM; with rat calcitonin receptor [3], 14.7 nM. Also, in the experiment with rat calcitonin receptor [2], the “Ratio rCT/rAmylin binding” value amounted to 85.4. Moreover, in experiment [4], the “Ratio hCT/hAmylin binding” value is 51.6.

B3: N^ε1-[(4S)-4-carboxy-4-[[(4S)-4-carboxy-4-(19-carboxynonadecanoylamino)butanoyl]amino]butanoyl]-[Glu14,Arg17,Pro21,Pro27,Arg34]-h-amylin (peptide)
peptide: K([γGlu-γGlu-C20 diacid])CNTATCATQRLAEFLRHSSPNFGAIPSSTNVGRNTY-NH2
modifications: disulfide 2-7; N-terminus assumed
SMILES: CC[C@H](C)[C@H](NC(=O)[C@H](C)NC(=O)CNC(=O)[C@H](Cc1ccccc1)NC(=O)[C@H](CC(N)=O)NC(=O)[C@@H]1CCCN1C(=O)[C@H](CO)NC(=O)[C@H](CO)NC(=O)[C@H](Cc1c[nH]cn1)NC(=O)[C@H](CCCNC(=N)N)NC(=O)[C@H](CC(C)C)NC(=O)[C@H](Cc1ccccc1)NC(=O)[C@H](CCC(=O)O)NC(=O)[C@H](C)NC(=O)[C@H](CC(C)C)NC(=O)[C@H](CCCNC(=N)N)NC(=O)[C@H](CCC(N)=O)NC(=O)[C@@H](NC(=O)[C@H](C)NC(=O)[C@@H]1CSSC[C@H](NC(=O)[C@@H](N)CCCCNC(=O)CC[C@H](NC(=O)CC[C@H](NC(=O)CCCCCCCCCCCCCCCCCCC(=O)O)C(=O)O)C(=O)O)C(=O)N[C@@H](CC(N)=O)C(=O)N[C@@H]([C@@H](C)O)C(=O)N[C@@H](C)C(=O)N[C@@H]([C@@H](C)O)C(=O)N1)[C@@H](C)O)C(=O)N1CCC[C@H]1C(=O)N[C@@H](CO)C(=O)N[C@@H](CO)C(=O)N[C@H](C(=O)N[C@@H](CC(N)=O)C(=O)N[C@H](C(=O)NCC(=O)N[C@@H](CCCNC(=N)N)C(=O)N[C@@H](CC(N)=O)C(=O)N[C@H](C(=O)N[C@@H](Cc1ccc(O)cc1)C(N)=O)[C@@H](C)O)C(C)C)[C@@H](C)O
notes: synthetic analogue of human amylin; also called compound 88
In the case of B3, the values for the IC50 (in experiment [1]; in the experiment with rat calcitonin receptor [3]) were 2.31 nM and 196 nM, respectively. Besides, the “Ratio rCT/rAmylin binding” value with rat calcitonin receptor [2] is 84.9. The “Ratio hCT/hAmylin binding” value in experiment [4] amounted to 46.5.

B4: N^ε1-[(4S)-4-carboxy-4-[[(4S)-4-carboxy-4-(19-carboxynonadecanoylamino)butanoyl]amino]butanoyl]-[Arg17,Pro21,Pro27,His34]-h-amylin (peptide)
peptide: K([γGlu-γGlu-C20 diacid])CNTATCATQRLANFLRHSSPNFGAIPSSTNVGHNTY-NH2
modifications: disulfide 2-7; N-terminus assumed
SMILES: CC[C@H](C)[C@H](NC(=O)[C@H](C)NC(=O)CNC(=O)[C@H](Cc1ccccc1)NC(=O)[C@H](CC(N)=O)NC(=O)[C@@H]1CCCN1C(=O)[C@H](CO)NC(=O)[C@H](CO)NC(=O)[C@H](Cc1c[nH]cn1)NC(=O)[C@H](CCCNC(=N)N)NC(=O)[C@H](CC(C)C)NC(=O)[C@H](Cc1ccccc1)NC(=O)[C@H](CC(N)=O)NC(=O)[C@H](C)NC(=O)[C@H](CC(C)C)NC(=O)[C@H](CCCNC(=N)N)NC(=O)[C@H](CCC(N)=O)NC(=O)[C@@H](NC(=O)[C@H](C)NC(=O)[C@@H]1CSSC[C@H](NC(=O)[C@@H](N)CCCCNC(=O)CC[C@H](NC(=O)CC[C@H](NC(=O)CCCCCCCCCCCCCCCCCCC(=O)O)C(=O)O)C(=O)O)C(=O)N[C@@H](CC(N)=O)C(=O)N[C@@H]([C@@H](C)O)C(=O)N[C@@H](C)C(=O)N[C@@H]([C@@H](C)O)C(=O)N1)[C@@H](C)O)C(=O)N1CCC[C@H]1C(=O)N[C@@H](CO)C(=O)N[C@@H](CO)C(=O)N[C@H](C(=O)N[C@@H](CC(N)=O)C(=O)N[C@H](C(=O)NCC(=O)N[C@@H](Cc1c[nH]cn1)C(=O)N[C@@H](CC(N)=O)C(=O)N[C@H](C(=O)N[C@@H](Cc1ccc(O)cc1)C(N)=O)[C@@H](C)O)C(C)C)[C@@H](C)O
notes: synthetic analogue of human amylin; also called compound 86
As to B4, the figures for the IC50 (in experiment [1]; in the experiment with rat calcitonin receptor [3]) were 2.8 nM and 352 nM, respectively. In addition, the “Ratio rCT/rAmylin binding” value in the experiment with rat calcitonin receptor [2] turned out to be 126. The “Ratio hCT/hAmylin binding” value in experiment [4] is 159.

Source of the values: patent publication US20140087995A1 (published 2014).
